Measured values taken from the supplement of paper PMC6757056.
± gives the standard deviation of the averaged measurements.

B1: library; a variant is named by its letters at N, in order (parent)
chain: GCUGUCACCGGUGCUUGGUACGUUAUAUUCAGCCGGUCUGAUGAGUCUNNNNNNAGACGAAACAGC

What was measured:
[1] = variants of: B1; assay: normalized RNA/DNA level without ligand (relative to sTRSVctl = 100) (log10 (% of sTRSVctl)); HEK293T overexpressing SLC46A1; higher = less ribozyme self-cleavage, higher mRNA level; details: without (6R,S)-folinic acid; ligand present: no
How it was run: (§1)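 RNA level was computed as RNA reads over DNA reads divided by a spiked-in non-cleaving sequence or by the top sequences, then scaled and log-transformed. Scaling was ×100 with log10, the top group was 25 sequences, and the threshold was ≥100 DNA reads. The reads came from HEK293T cells transfected at 4 µg per 6-well well with ribozyme switch library plasmids (mCherry, or eGFP in some ligand experiments). Total RNA was extracted with EDTA 72 h after transfection, with any ligand added 1 h before it.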

[2] = variants of: B1; assay: normalized RNA/DNA level with ligand (relative to sTRSVctl = 100) (log10 (% of sTRSVctl)); HEK293T overexpressing SLC46A1; ligand concentration (+) RNA-Seq: 6 mM; higher = less ribozyme self-cleavage, higher mRNA level; details: with (6R,S)-folinic acid; ligand present: yes
How it was run: as §1

| Variant | normalized RNA/DNA level without ligand (log10) [1] | normalized RNA/DNA level with ligand (log10) [2] |
| --- | --- | --- |
| GCUGUCACCGGUGCUUGGUACGUUAUAUUCAGCCGGUCUGAUGAGUCUGAGUAUAGACGAAACAGC [GAGUAU] | 1.982 ± 0.0044 | 2.014 ± 0.02 |
| GCUGUCACCGGUGCUUGGUACGUUAUAUUCAGCCGGUCUGAUGAGUCUUAGUGAAGACGAAACAGC [UAGUGA] | 1.8778 ± 0.0018 | 2 ± 0.025 |
| GCUGUCACCGGUGCUUGGUACGUUAUAUUCAGCCGGUCUGAUGAGUCUUAGGGCAGACGAAACAGC [UAGGGC] | 2.01 ± 0.0043 | 2.02 ± 0.03 |
| GCUGUCACCGGUGCUUGGUACGUUAUAUUCAGCCGGUCUGAUGAGUCUUAGGUUAGACGAAACAGC [UAGGUU] | 1.961 ± 0.011 | 2 ± 0.026 |
| GCUGUCACCGGUGCUUGGUACGUUAUAUUCAGCCGGUCUGAUGAGUCUUAGGUCAGACGAAACAGC [UAGGUC] | 2.05 ± 0.022 | 2 ± 0.054 |
| GCUGUCACCGGUGCUUGGUACGUUAUAUUCAGCCGGUCUGAUGAGUCUGAGGUCAGACGAAACAGC [GAGGUC] | 2.038 ± 0.01 | 2.04 ± 0.052 |
| GCUGUCACCGGUGCUUGGUACGUUAUAUUCAGCCGGUCUGAUGAGUCUAAGGGGAGACGAAACAGC [AAGGGG] | 1.902 ± 0.011 | 2.038 ± 0.011 |
| GCUGUCACCGGUGCUUGGUACGUUAUAUUCAGCCGGUCUGAUGAGUCUAAGGGCAGACGAAACAGC [AAGGGC] | 2.0351 ± 4.5e-05 | 2.05 ± 0.045 |
| GCUGUCACCGGUGCUUGGUACGUUAUAUUCAGCCGGUCUGAUGAGUCUAAGGUUAGACGAAACAGC [AAGGUU] | 1.974 ± 0.015 | 2.02 ± 0.025 |
| GCUGUCACCGGUGCUUGGUACGUUAUAUUCAGCCGGUCUGAUGAGUCUCAGUAUAGACGAAACAGC [CAGUAU] | 1.951 ± 0.0075 | 2.016 ± 0.013 |
| GCUGUCACCGGUGCUUGGUACGUUAUAUUCAGCCGGUCUGAUGAGUCUCAGUAGAGACGAAACAGC [CAGUAG] | 1.93 ± 0.023 | 1.99 ± 0.052 |
| GCUGUCACCGGUGCUUGGUACGUUAUAUUCAGCCGGUCUGAUGAGUCUCAGUACAGACGAAACAGC [CAGUAC] | 1.96 ± 0.036 | 1.97 ± 0.04 |
| GCUGUCACCGGUGCUUGGUACGUUAUAUUCAGCCGGUCUGAUGAGUCUCAGGUUAGACGAAACAGC [CAGGUU] | 2 ± 0.032 | 2 ± 0.022 |
| GCUGUCACCGGUGCUUGGUACGUUAUAUUCAGCCGGUCUGAUGAGUCUCAGGUCAGACGAAACAGC [CAGGUC] | 2.08 ± 0.0023 | 2.04 ± 0.045 |
| GCUGUCACCGGUGCUUGGUACGUUAUAUUCAGCCGGUCUGAUGAGUCUUAGUCUAGACGAAACAGC [UAGUCU] | 2.0118 ± 0.0019 | 2.02 ± 0.037 |
| GCUGUCACCGGUGCUUGGUACGUUAUAUUCAGCCGGUCUGAUGAGUCUUAGUCGAGACGAAACAGC [UAGUCG] | 1.813 ± 0.0049 | 1.99 ± 0.043 |
| GCUGUCACCGGUGCUUGGUACGUUAUAUUCAGCCGGUCUGAUGAGUCUUAGUCAAGACGAAACAGC [UAGUCA] | 1.98 ± 0.021 | 2.01 ± 0.038 |
| GCUGUCACCGGUGCUUGGUACGUUAUAUUCAGCCGGUCUGAUGAGUCUUAGUCCAGACGAAACAGC [UAGUCC] | 2.0087 ± 0.0016 | 2.03 ± 0.057 |
| GCUGUCACCGGUGCUUGGUACGUUAUAUUCAGCCGGUCUGAUGAGUCUGAGUCUAGACGAAACAGC [GAGUCU] | 2.0246 ± 0.001 | 2.02 ± 0.027 |
| GCUGUCACCGGUGCUUGGUACGUUAUAUUCAGCCGGUCUGAUGAGUCUGAGUCGAGACGAAACAGC [GAGUCG] | 1.984 ± 0.019 | 2 ± 0.034 |
| GCUGUCACCGGUGCUUGGUACGUUAUAUUCAGCCGGUCUGAUGAGUCUAAGUCAAGACGAAACAGC [AAGUCA] | 1.969 ± 0.0021 | 1.98 ± 0.029 |

| Variant | normalized RNA/DNA level without ligand (log10) [1] | normalized RNA/DNA level with ligand (log10) [2] |
| --- | --- | --- |
| GCUGUCACCGGUGCUUGGUACGUUAUAUUCAGCCGGUCUGAUGAGUCUAAGUCCAGACGAAACAGC [AAGUCC] | 2 ± 0.023 | 2.01 ± 0.024 |
| GCUGUCACCGGUGCUUGGUACGUUAUAUUCAGCCGGUCUGAUGAGUCUAAGUCUAGACGAAACAGC [AAGUCU] | 2.066 ± 0.015 | 2.0681 ± 0.0013 |
| GCUGUCACCGGUGCUUGGUACGUUAUAUUCAGCCGGUCUGAUGAGUCUCAGUCAAGACGAAACAGC [CAGUCA] | 1.967 ± 0.0097 | 1.96 ± 0.058 |
| GCUGUCACCGGUGCUUGGUACGUUAUAUUCAGCCGGUCUGAUGAGUCUCAGUCUAGACGAAACAGC [CAGUCU] | 2.018 ± 0.0006 | 2.03 ± 0.038 |
| GCUGUCACCGGUGCUUGGUACGUUAUAUUCAGCCGGUCUGAUGAGUCUCAGUCCAGACGAAACAGC [CAGUCC] | 2.051 ± 0.011 | 2.04 ± 0.037 |
| GCUGUCACCGGUGCUUGGUACGUUAUAUUCAGCCGGUCUGAUGAGUCUAAGUAUAGACGAAACAGC [AAGUAU] | 1.959 ± 0.011 | 2.02 ± 0.03 |
| GCUGUCACCGGUGCUUGGUACGUUAUAUUCAGCCGGUCUGAUGAGUCUAAGUACAGACGAAACAGC [AAGUAC] | 2.02 ± 0.024 | 2.03 ± 0.039 |
| GCUGUCACCGGUGCUUGGUACGUUAUAUUCAGCCGGUCUGAUGAGUCUCAGUGAAGACGAAACAGC [CAGUGA] | 1.979 ± 0.011 | 2.007 ± 0.02 |
| GCUGUCACCGGUGCUUGGUACGUUAUAUUCAGCCGGUCUGAUGAGUCUCAGUGCAGACGAAACAGC [CAGUGC] | 2.011 ± 0.014 | 2 ± 0.026 |
| GCUGUCACCGGUGCUUGGUACGUUAUAUUCAGCCGGUCUGAUGAGUCUCAGUGUAGACGAAACAGC [CAGUGU] | 2.015 ± 0.02 | 2.03 ± 0.025 |
| GCUGUCACCGGUGCUUGGUACGUUAUAUUCAGCCGGUCUGAUGAGUCUCAGUGGAGACGAAACAGC [CAGUGG] | 1.91 ± 0.023 | 2.005 ± 0.0026 |
| GCUGUCACCGGUGCUUGGUACGUUAUAUUCAGCCGGUCUGAUGAGUCUUAGUACAGACGAAACAGC [UAGUAC] | 1.972 ± 0.002 | 2.01 ± 0.048 |
| GCUGUCACCGGUGCUUGGUACGUUAUAUUCAGCCGGUCUGAUGAGUCUCAGGGUAGACGAAACAGC [CAGGGU] | 1.974 ± 0.014 | 2 ± 0.031 |
| GCUGUCACCGGUGCUUGGUACGUUAUAUUCAGCCGGUCUGAUGAGUCUCAGGGGAGACGAAACAGC [CAGGGG] | 1.87 ± 0.049 | 1.996 ± 0.016 |
| GCUGUCACCGGUGCUUGGUACGUUAUAUUCAGCCGGUCUGAUGAGUCUCAGGGAAGACGAAACAGC [CAGGGA] | 1.962 ± 0.005 | 2 ± 0.029 |
| GCUGUCACCGGUGCUUGGUACGUUAUAUUCAGCCGGUCUGAUGAGUCUCAGGGCAGACGAAACAGC [CAGGGC] | 1.994 ± 0.013 | 2.03 ± 0.046 |
| GCUGUCACCGGUGCUUGGUACGUUAUAUUCAGCCGGUCUGAUGAGUCUAAGUGGAGACGAAACAGC [AAGUGG] | 1.87 ± 0.01 | 2.02 ± 0.041 |
| GCUGUCACCGGUGCUUGGUACGUUAUAUUCAGCCGGUCUGAUGAGUCUAAGUGCAGACGAAACAGC [AAGUGC] | 1.984 ± 0.0023 | 2.01 ± 0.052 |
| GCUGUCACCGGUGCUUGGUACGUUAUAUUCAGCCGGUCUGAUGAGUCUGAGGGGAGACGAAACAGC [GAGGGG] | 2.007 ± 0.018 | 2.04 ± 0.051 |
| GCUGUCACCGGUGCUUGGUACGUUAUAUUCAGCCGGUCUGAUGAGUCUGAGGGCAGACGAAACAGC [GAGGGC] | 1.956 ± 0.011 | 2.04 ± 0.042 |
